Data as given in PMC3391102 (The Journal of Biological Chemistry, 2012).

Molecular target: Full-length NOD2 (purified recombinant, tags removed) (UniProt Q9HC29 1-1040)
Assay: SPR

Full-length NOD2 (purified recombinant, tags removed), sequence (Q9HC29 whole entry): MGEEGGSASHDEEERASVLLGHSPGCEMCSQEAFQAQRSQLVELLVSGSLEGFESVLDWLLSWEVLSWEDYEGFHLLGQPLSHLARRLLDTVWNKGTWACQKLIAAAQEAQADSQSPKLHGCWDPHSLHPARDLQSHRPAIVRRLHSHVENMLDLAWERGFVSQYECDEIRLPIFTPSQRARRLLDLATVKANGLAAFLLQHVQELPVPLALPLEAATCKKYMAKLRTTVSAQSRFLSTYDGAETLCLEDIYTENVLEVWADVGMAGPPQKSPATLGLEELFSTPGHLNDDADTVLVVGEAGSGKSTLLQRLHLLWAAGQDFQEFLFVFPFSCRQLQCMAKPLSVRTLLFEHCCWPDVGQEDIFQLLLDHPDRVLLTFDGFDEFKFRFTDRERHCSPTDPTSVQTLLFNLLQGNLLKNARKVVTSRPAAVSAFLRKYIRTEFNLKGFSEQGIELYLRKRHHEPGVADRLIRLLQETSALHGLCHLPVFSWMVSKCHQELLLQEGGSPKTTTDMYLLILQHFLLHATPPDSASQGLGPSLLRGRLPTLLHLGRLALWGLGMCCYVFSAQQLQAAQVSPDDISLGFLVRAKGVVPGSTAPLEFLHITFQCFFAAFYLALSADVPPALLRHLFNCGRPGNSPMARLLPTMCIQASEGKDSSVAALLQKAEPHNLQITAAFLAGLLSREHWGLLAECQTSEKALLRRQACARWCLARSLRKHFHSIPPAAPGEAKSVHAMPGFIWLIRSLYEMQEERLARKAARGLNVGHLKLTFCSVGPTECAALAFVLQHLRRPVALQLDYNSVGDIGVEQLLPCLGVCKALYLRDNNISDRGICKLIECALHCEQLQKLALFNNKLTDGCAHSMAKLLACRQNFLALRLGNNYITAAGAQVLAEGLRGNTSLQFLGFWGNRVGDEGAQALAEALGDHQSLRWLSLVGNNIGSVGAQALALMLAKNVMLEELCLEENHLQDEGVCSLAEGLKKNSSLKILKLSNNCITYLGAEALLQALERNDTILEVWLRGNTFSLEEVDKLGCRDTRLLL

B1: NOD2 CARDs (residues Met28-Arg227) (domain or fragment)
chain: MCSQEAFQAQRSQLVELLVSGSLEGFESVLDWLLSWEVLSWEDYEGFHLLGQPLSHLARRLLDTVWNKGTWACQKLIAAAQEAQADSQSPKLHGCWDPHSLHPARDLQSHRPAIVRRLHSHVENMLDLAWERGFVSQYECDEIRLPIFTPSQRARRLLDLATVKANGLAAFLLQHVQELPVPLALPLEAATCKKYMAKLR
For B1, the Kd was 12.4 ± 0.58 µM.
